From PMC8836581, “A Microplate-Based Approach to Map Interactions between TDP-43 and α-Synuclein” (Journal of Clinical Medicine, 2022) come the findings set out here.

For assay [1], the target named is full length recombinant alpha synuclein (UniProt P37840 1-140). Put plainly: ELISA; synthetic peptides (5 µg/mL in PBS, 10 mM EDTA) coupled through cysteine to maleimide-activated microplate wells, blocked with L-cysteine; 0.1 µg/mL recombinant protein added 1 h at 37 °C; biotinylated detection antibody, streptavidin-HRP, TMB, absorbance at 450 nm. The following applies: both partners purified. (ELISA stands for enzyme-linked immunosorbent assay.)

For assay [2], the target named is T1, full length recombinant TDP-43 (UniProt Q13148 1-414).
T1 construct: Called monomeric in the conventional ELISA; also called full-length TDP-43; source: recombinant
Described as above. The note with it: both partners purified.

T1 sequence (Q13148 whole entry): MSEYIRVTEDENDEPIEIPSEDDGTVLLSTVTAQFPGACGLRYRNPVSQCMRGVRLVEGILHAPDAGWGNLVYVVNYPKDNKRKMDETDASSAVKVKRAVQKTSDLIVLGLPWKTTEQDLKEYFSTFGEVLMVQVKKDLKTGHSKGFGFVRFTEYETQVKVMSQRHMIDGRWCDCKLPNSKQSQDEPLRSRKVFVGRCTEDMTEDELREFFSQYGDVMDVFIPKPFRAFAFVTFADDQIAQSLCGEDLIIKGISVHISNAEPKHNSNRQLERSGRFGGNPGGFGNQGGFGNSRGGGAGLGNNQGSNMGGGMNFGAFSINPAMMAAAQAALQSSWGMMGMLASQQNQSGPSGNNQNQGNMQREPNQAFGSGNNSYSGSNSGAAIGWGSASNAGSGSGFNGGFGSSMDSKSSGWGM

B1: TDP-43 peptide 17 (aa 310–329) (peptide)
peptide: GMNFGAFSINPAMMAAAQAA
notes: That this stretch has no internal cysteine is my surmise; source: synthetic peptide (Lugen Sci Co., Ltd.)
With B1, the binding result in assay [1] is “binds”.

B2: α-synuclein peptide, amino acids 61–76 (peptide, UniProt P37840 61-76, looked up)
peptide: EQVTNVGGAVVTGVTA
notes: alpha synuclein residues 61-76, start of the non-amyloid β component (NAC); also called first 16 residues of the NAC; first 15 residues of the NAC region; source: synthetic peptide (Lugen Sci Co., Ltd.)
On to B2, for which, in assay [2], the binding result was “binds”.

B3: TDP-43 overlapping peptide aa 305–323 (peptide)
peptide: SNMGGGMNFGAFSINPAMM
notes: source: synthetic peptide (Lugen Sci Co., Ltd.)
In the case of B3, in assay [1], the binding result is on record as “binds”.
